Reference: patent US12203932B2, “Genetically encoded biosensors” (Howard Hughes Medical Institute, priority 2011, dated 2025)

B1: PfMBP: Pyrococcus furiosus maltotriose binding protein; SEQ ID NO:106 (protein, listed as Pyrococcus furiosus)
chain: MRRATYAFALLAILVLGVVASGCIGGGTTTPTQTSPATQPTTTQTPTQTETQAVECGSGKVVIWHAMQPNELEVFQSLAEEYMALCPEVEIVFEQKPNLEDALKAAIPTGQGPDLFIWAHDWIGKFAEAGLLEPIDEYVTEDLLNEFAPMAQDAMQYKGHYYALPFAAETVAIIYNKEMVSEPPKTFDEMKAIMEKYYDPANEKYGIAWPINAYFISAIAQAFGGYYFDDKTEQPGLDKPETIEGFKFFFTEIWPYMAPTGDYNTQQSIFLEGRAPMMVNGPWSINDVKKAGINFGVVPLPPIIKDGKEYWPRPYGGVKLIYFAAGIKNKDAAWKFAKWLTTSEESIKTLALELGYIPVLTKVLDDPEIKNDPVIYGFGQAVQHAYLMPKSPKMSAVWGGVDGAINEILQDPQNADIEGILKKYQQEILNNMQG
B2: wild-type YbeJ: E. coli glutamate-binding protein; SEQ ID NO:107 (protein, listed as Escherichia coli)
chain: MNAKIIASLAFTSMFSLSTLLNPAYAEEQEKALNFGIISTESQQNLKPQWTPFLQDMEKKLGVKVNAFFAPDYAGIIQGMRFNKVDIAWYGNLSAMEAVDRANGQVFAQTVAADGSPGYWSVLIVNKDSPINNLNDLLAKRKDLTFGNGDPNSTSGFLVPGYYVFAKNNISASDFKRTVNAGHETNALAVANKQVDVATNNTENLDKLKTSAPEKLKELKVIWKSPLIPGDPIVWRKNLSETTKDKIYDFFMNYGKTPEEKAVLERLGWAPFRASSDLQLVPIRQLALFKEMQSVKDNKGLNEQDKLAKTTAIQAQLDDLDRLNNALSAMSSVSKAVQ

Key:
[1] = Thermal stability by circular dichroism (CD) of MBPs and MBP-cpGFP sensors; format: physicochemical; settings: CD signal vs temperature
Experimental: Thermal stability of PfMBP171-cpGFP.L2FE was measured using circular-dichroism (CD) and compared to the original EcMBP and PfMBP binding proteins, along with cpGFP. Following the changes by means of CD allowed determination of whether different transitions happened in alpha, beta, or both kinds of structures.
Given that cpGFP is a beta barrel, strong transitions in the beta signal alone were associated with changes in this kind of structure. In the same way, transitions in both kinds of signals were associated with the binding protein structure. […] Also, the addition of maltose to EcMBP stabilized the protein by about 10° C.

[2] = Fluorescence response and titration of soluble EcYbeJ253-cpGFP sensors with glutamate; format: binding; settings: soluble protein; read-out: Kd (affinity) for glutamate
Experimental: Several thousand variants were screened in semi-high-throughput fashion, measuring fluorescence intensity of clarified cell lysate in the absence and presence of 10 mM glutamate.

| Molecule | denaturation temperature / Tm of binding protein (component) [1] | Kd [2] |
| --- | --- | --- |
| B1 | ≥ 80 °C |  |
| B2 |  | ~1000 nM |
